Here are results for 2 sequences from patent US20140127814.

The subject of data set [1] is CCR5 4-finger ZFN-R (ZFP-FokI) (artificial). The data set can be described thus: cell_activity. The following applies: with ZFN-L and WT CFTR donor in CCR5-expressing HEK293 Flp-In; 17% with CFTR delta508F donor; NHEJ deletions at endogenous CCR5.
The test system of data set [2] is CCR5 4-finger ZFN-L (ZFP-FokI) (artificial). Briefly: cell_activity. To be noted: with ZFN-R and WT CFTR donor in CCR5-expressing HEK293 Flp-In; 17% with CFTR delta508F donor; NHEJ deletions at endogenous CCR5.

Sequence “AAACTGCAAAAG (double strand) [CCR5 ZFN-R half-site]” returned an activity (% CCR5-negative cells) in data set [1] of 23.

Sequence “GTCATCCTCATC (double strand) [CCR5 ZFN-L half-site]” came in with an activity (% CCR5-negative cells) in data set [2] of 23.
